Each block holds one binder with its values, some of them ahead of it.
Tests used:
[1] = target: T1, CD40/Fc fusion protein (human, UniProt P25942 21-193); experiment: biosensor assay substantially as in Example 22 (CD40/Fc captured on the chip); Affinity Ka
T1 sequence (P25942 21-193): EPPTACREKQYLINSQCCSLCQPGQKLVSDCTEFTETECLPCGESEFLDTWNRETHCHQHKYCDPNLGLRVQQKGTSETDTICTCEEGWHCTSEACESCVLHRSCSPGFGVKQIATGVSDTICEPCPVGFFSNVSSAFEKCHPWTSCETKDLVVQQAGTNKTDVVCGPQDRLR

[2] = target: T1, CD40/Fc fusion protein; experiment: BIAcore biosensor; CD40/Fc captured on the chip; first experiment; K2 (site 2)
Protocol: (§1) This example illustrates the binding affinities of several different CD40-L constructs. Affinity experiments were conducted by biospecific interaction analysis (BIA) using a biosensor, an instrument that combines a biological recognition mechanism with a sensing device or transducer. An exemplary biosensor is BIAcore™, from Pharmacia Biosensor AB (Uppsala, Sweden; see Fagerstam L.G., Techniques in Protein Chemistry II, ed. J. J. Villafranca, Acad. Press, NY, 1991). BIAcore™ uses the optical phenomenon surface plasmon resonance (Kretschmann and Raether, Z. Naturforschung, Teil. A 23:2135, 1968) to monitor the interaction of two biological molecules. Molecule pairs having affinity constants in the range 10^5 to 10^10 M^-1, and association rate constants in the range of 10^3 to 10^6 M^-1s^-1, are suitable for characterization with BIAcore™.
(§2) The biosensor chips were coated with goat anti-human IgG_1 Fc, which was used to bind CD40/Fc (prepared as described in Example 1) to the chip. The different constructs of CD40-L were then added at increasing concentrations; the chip was regenerated between the different constructs by the addition of sodium hydroxide. Two separate experiments were performed. […] The resultant data were analyzed to determine the affinity and association rate constants of the different CD40-L constructs. […]

[3] = target: T1, CD40/Fc fusion protein; experiment: BIAcore biosensor; CD40/Fc captured on the chip; first experiment; K1 (site 1)
Protocol: as §1, §2

[4] = target: T2, CD40/Fc fusion protein (human, UniProt P25942 21-193); experiment: BIAcore biosensor; CD40/Fc captured on the chip; first experiment; K2 (site 2)
T2 construct: extracellular domain; also called sCD40/Fc; C40/Fc; not shown: remainder of the human IgG1 Fc region (hinge onwards), joined at a Bgl II site
Protocol: as §1, §2
T2 sequence (P25942 21-193): as above

[5] = target: T2, CD40/Fc fusion protein; experiment: BIAcore biosensor; CD40/Fc captured on the chip; first experiment; K1 (site 1)
Protocol: as §1, §2

Ka [1]: 1.8e+09 M⁻¹
B1: CD40 ligand/zipper domain fusion protein mutant 194.W (ligand, not shown: a dimerising Fc or GST; small tags and cut ends)
chain: MQKGDQNPQIAAHVISEASSKTTSVLQWAEKGYYTMSNNLVTLENGKQLTVKRQGLYYIYAQVTFCSNREASSQAPFIASLWLKSPGRFERILLRAANTHSSAKPCGQQSIHLGGVFELQPGASVFVNVTDPSQVSHGTGFTSFGLLKL

Ka [2]: 4e+07 M⁻¹
Ka [3]: 7e+09 M⁻¹
B2: dimeric murine CD40-L (Fc fusion, prepared substantially as in Example 14) (Fc fusion)
chain: DKVEEEVNLHEDFVFIKKLKRCNKGEGSLSLLNCEEMRRQFEDLVKDITLNKEEKKENSFEMQRGDEDPQIAAHVVSEANSNAASVLQWAKKGYYTMKSNLVMLENGKQLTVKREGLYYVYTQVTFCSNREPSSQRPFIVGLWLKPSSGSERILLKAANTHSSSQLCEQQSVHLGGVFELQAGASVFVNVTEASQVIHRVGFSSFGLLKL

Ka [4]: 7e+08 M⁻¹
Ka [5]: 1.6e+11 M⁻¹
B3: CD40-L/FC2 soluble human CD40-L/Fc fusion protein (Fc fusion, not shown: a dimerising Fc or GST; small tags and cut ends)
chain: DKIEDERNLHEDFVFMKTIQRCNTGERSLSLLNCEEIKSQFEGFVKDIMLNKEETKKENSFEMQKGDQNPQIAAHVISEASSKTTSVLQWAEKGYYTMSNNLVTLENGKQLTVKRQGLYYIYAQVTFCSNREASSQAPFIASLCLKSPGRFERILLRAANTHSSAKPCGQQSIHLGGVFELQPGASVFVNVTDPSQVSHGTGFTSFGLLKL
notes: also called dimeric human CD40-L; Human Dimer

Source: patent US6391637
